Consider 85 variants from IntAct's records for PubMed 29039417.

First the molecules themselves.
B1: BBSome complex member BBS4 (Homo sapiens), Q96RK4 (parent)
chain: MAEERVATRTQFPVSTESQKPRQKKAPEFPILEKQNWLIHLHYIRKDYEACKAVIKEQLQETQGLCEYAIYVQALIFRLEGNIQESLELFQTCAVLSPQSADNLKQVARSLFLLGKHKAAIEVYNEAAKLNQKDWEISHNLGVCYIYLKQFNKAQDQLHNALNLNRHDLTYIMLGKIHLLEGDLDKAIEVYKKAVEFSPENTELLTTLGLLYLQLGIYQKAFEHLGNALTYDPTNYKAILAAGSMMQTHGDFDVALTKYRVVACAVPESPPLWNNIGMCFFGKKKYVAAISCLKRANYLAPFDWKILYNLGLVHLTMQQYASAFHFLSAAINFQPKMGELYMLLAVALTNLEDIENAKRAYAEAVHLDKCNPLVNLNYAVLLYNQGEKKNALAQYQEMEKKVSLLKDNSSLEFDSEMVEMAQKLGAALQVGEALVWTKPVKDPKSKHQTTSTSKPASFQQPLGSNQALGQAMSSAAAYRTLPSGAGGTSQFTKPPSLPLEPEPAVESSPTETSEQIREK
partner: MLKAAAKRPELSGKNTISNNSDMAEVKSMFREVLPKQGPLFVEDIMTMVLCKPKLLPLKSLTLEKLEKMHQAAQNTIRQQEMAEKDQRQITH

In this assay the parent is B1. The note with it: with bbip1_human BBIP1, A8MTZ0.
L392A: the “effect of a mutation on the interaction” value is “with no effect”.
As for L392E, the entry is “with no effect”; as for L392K, “with no effect”.
On to L392P, for which the “effect of a mutation on the interaction” value is given as “disrupting interaction strength”.
With N390L, the “effect of a mutation on the interaction” value is reported as “disrupting interaction strength”.
With N390K, the “effect of a mutation on the interaction” value is “with no effect”.
Under N390A stands “with no effect”; under N390E, “with no effect”.
Consider Q394L, for which the “effect of a mutation on the interaction” value is reported as “disrupting interaction strength”.
As for Q394E, the “effect of a mutation on the interaction” value is “with no effect”.
As for Q394R, the “effect of a mutation on the interaction” value is “disrupting interaction strength”.
As for Q394A, the “effect of a mutation on the interaction” value is given as “with no effect”.
As to Q394K, the “effect of a mutation on the interaction” value is given as “with no effect”.
As for A379E, the “effect of a mutation on the interaction” value is “with no effect”.
Under A379V stands “disrupting interaction strength”; under A379K, “with no effect”; under L381E, “with no effect”.
Take L381A: the “effect of a mutation on the interaction” value was “with no effect”.
As for L381P, the entry is “disrupting interaction strength”; as for L381K, “with no effect”.
K401A: the “effect of a mutation on the interaction” value is reported as “with no effect”.
Regarding K401E, the “effect of a mutation on the interaction” value was “disrupting interaction strength”.
As for K401V, the entry is “disrupting interaction strength”.
Under Y383A stands “with no effect”; under Y383K, “with no effect”; under Y383E, “with no effect”.
As for S403A, the entry is “with no effect”; as for S403E, “with no effect”.
In the case of S403K, the “effect of a mutation on the interaction” value was “with no effect”.
With E399K, the “effect of a mutation on the interaction” value is “with no effect”.
Regarding E399A, the “effect of a mutation on the interaction” value was “with no effect”.
E397K: the “effect of a mutation on the interaction” value is recorded as “with no effect”.
For E397A, the “effect of a mutation on the interaction” value was “with no effect”.
For the variant K388A, the “effect of a mutation on the interaction” value is given as “with no effect”.
Under K388E stands “with no effect”; under Y395A, “with no effect”; under Y395E, “with no effect”.
On to Y395H, for which the “effect of a mutation on the interaction” value was “disrupting interaction strength”.
Under Y395K stands “with no effect”; under M398E, “with no effect”.
Under M398A stands “with no effect”; under M398K, “with no effect”; under L404E, “with no effect”.
Under L404A stands “with no effect”; under E387K, “with no effect”.
For the variant E387G, the “effect of a mutation on the interaction” value is on record as “disrupting interaction strength”.
Under E387A stands “with no effect”.
Take Y378E: the “effect of a mutation on the interaction” value is recorded as “with no effect”.
Consider Y378K, for which the “effect of a mutation on the interaction” value is given as “with no effect”.
As for Y378A, the entry is “with no effect”.
On to G386K, for which the “effect of a mutation on the interaction” value is on record as “with no effect”.
Under G386E stands “with no effect”; under G386A, “with no effect”; under Q396A, “with no effect”.
Under Q396E stands “with no effect”; under Q396K, “with no effect”.
As for K389A, the entry is “with no effect”; as for K389E, “with no effect”.
Consider A391K, for which the “effect of a mutation on the interaction” value was “with no effect”.
With A391E, the “effect of a mutation on the interaction” value is listed as “with no effect”.
In the case of A391T, the “effect of a mutation on the interaction” value is reported as “disrupting interaction strength”.
A391V: the “effect of a mutation on the interaction” value was “disrupting interaction strength”.
As for V402E, the entry is “with no effect”; as for V402K, “with no effect”.
In the case of V402A, the “effect of a mutation on the interaction” value is “with no effect”.
Consider L382P, for which the “effect of a mutation on the interaction” value is on record as “disrupting interaction strength”.
Under L382E stands “with no effect”.
As for L382A, the “effect of a mutation on the interaction” value is “with no effect”.
As for L382K, the entry is “with no effect”.
As for N377K, the “effect of a mutation on the interaction” value is reported as “with no effect”.
Take N377R: the “effect of a mutation on the interaction” value is listed as “disrupting interaction strength”.
In the case of N377S, the “effect of a mutation on the interaction” value is given as “disrupting interaction strength”.
As for N377I, the entry is “disrupting interaction strength”.
With K400E, the “effect of a mutation on the interaction” value was “with no effect”.
For the variant K400A, the “effect of a mutation on the interaction” value was “with no effect”.
Under Q385K stands “with no effect”; under Q385A, “with no effect”.
Consider Q385E, for which the “effect of a mutation on the interaction” value is “with no effect”.
On to N384A, for which the “effect of a mutation on the interaction” value is “with no effect”.
Turning to N384E, the “effect of a mutation on the interaction” value is listed as “with no effect”.
On to N384K, for which the “effect of a mutation on the interaction” value is “with no effect”.
Under N384Y stands “disrupting interaction strength”; under V380E, “with no effect”.
Under V380K stands “with no effect”; under V380A, “disrupting interaction strength”.
